Results reported in patent publication US20170355733A1.
Where a chain is given by its changes, count along the chain named. Names and notes keep the numbering of the source.

B1: GB1#-T17A.1d (designed binder)
chain: GPLGSTTYKLILNGKTLTGYTAAIAADAATAEIVLKQFANDNGIDGEWTYDDATKTFTVTE
B2: GB1#-D36V.1d (designed binder)
chain: B1 chain with A22T, D41V
B3: GB1#-T17V.1d (designed binder)
chain: B1 chain with A22V
B4: GB1#-Cont.1d (designed binder)
chain: B1 chain with A22T

Each binder was assayed against aTNF-Fab (Fab fragment of anti-human TNFα monoclonal IgG, generic name Infliximab, product name Remicade) (assay: affinity constant KA for aTNF-Fab, summing up Table 2 (method not shown in the excerpt)).

Ka [M⁻¹] | Binder
> 500000 | B1
> 500000 | B2
> 500000 | B3

What follows are binders tested against aTNF-Fab (Fab fragment of anti-human TNFα monoclonal IgG, generic name Infliximab, product name Remicade) (assay: SPR Biacore 3000, aTNF-Fab amine-coupled on CM5, peptide flowed, 25 °C, pH 7.4, 1:1 fit).

Ka [M⁻¹] | koff [s⁻¹] | kon [M⁻¹ s⁻¹] | Binder
2.45e+06 | 0.017 | 41700 | B4
880000 | 0.0285 | 25000 | B1
510000 | 0.064 | 32800 | B2
570000 | 0.0335 | 19100 | B3

What follows are binders tested against aTNF-Fab (Fab fragment of anti-human TNFα monoclonal IgG, generic name Infliximab, product name Remicade) (assay: affinity chromatography on aTNF-Fab-immobilized column, linear pH gradient 5.5 to 2.5, pH at elution peak top).

Dissociation pH [pH] | Binder
2.6 | B4
2.85 | B1
3.4 | B2
3 | B3
